B1: Adhesion G-protein coupled receptor G1 (Mus musculus), Q8K209 (parent)
chain: MAVQVLRQMVYFLLSLFSLVQGAHSGSPREDFRFCGQRNQTQQSTLHYDQSSEPHIFVWNTEETLTIRAPFLAAPDIPRFFPEPRGLYHFCLYWSRHTGRLHLRYGKHDYLLSSQASRLLCFQKQEQSLKQGAPLIATSVSSWQIPQNTSLPGAPSFIFSFHNAPHKVSHNASVDMCDLKKELQQLSRYLQHPQKAAKRPTAAFISQQLQSLESKLTSVSFLGDTLSFEEDRVNATVWKLPPTAGLEDLHIHSQKEEEQSEVQAYSLLLPRAVFQQTRGRRRDDAKRLLVVDFSSQALFQDKNSSQVLGEKVLGIVVQNTKVTNLSDPVVLTFQHQPQPKNVTLQCVFWVEDPASSSTGSWSSAGCETVSRDTQTSCLCNHLTYFAVLMVSSTEVEATHKHYLTLLSYVGCVISALACVFTIAAYLCSRRKSRDYTIKVHMNLLSAVFLLDVSFLLSEPVALTGSEAACRTSAMFLHFSLLACLSWMGLEGYNLYRLVVEVFGTYVPGYLLKLSIVGWGFPVFLVTLVALVDVNNYGPIILAVRRTPERVTYPSMCWIRDSLVSYVTNLGLFSLVFLFNLAMLATMVVQILRLRPHSQNWPHVLTLLGLSLVLGLPWALVFFSFASGTFQLVILYLFSIITSFQGFLIFLWYWSMRFQAQGGPSPLKNNSDSAKLPISSGSTSSSRI

Variants of: B1
Conditions: with co3a1_mouse Col3a1, P08121
Chain of co3a1_mouse Col3a1, P08121 (P08121 whole entry): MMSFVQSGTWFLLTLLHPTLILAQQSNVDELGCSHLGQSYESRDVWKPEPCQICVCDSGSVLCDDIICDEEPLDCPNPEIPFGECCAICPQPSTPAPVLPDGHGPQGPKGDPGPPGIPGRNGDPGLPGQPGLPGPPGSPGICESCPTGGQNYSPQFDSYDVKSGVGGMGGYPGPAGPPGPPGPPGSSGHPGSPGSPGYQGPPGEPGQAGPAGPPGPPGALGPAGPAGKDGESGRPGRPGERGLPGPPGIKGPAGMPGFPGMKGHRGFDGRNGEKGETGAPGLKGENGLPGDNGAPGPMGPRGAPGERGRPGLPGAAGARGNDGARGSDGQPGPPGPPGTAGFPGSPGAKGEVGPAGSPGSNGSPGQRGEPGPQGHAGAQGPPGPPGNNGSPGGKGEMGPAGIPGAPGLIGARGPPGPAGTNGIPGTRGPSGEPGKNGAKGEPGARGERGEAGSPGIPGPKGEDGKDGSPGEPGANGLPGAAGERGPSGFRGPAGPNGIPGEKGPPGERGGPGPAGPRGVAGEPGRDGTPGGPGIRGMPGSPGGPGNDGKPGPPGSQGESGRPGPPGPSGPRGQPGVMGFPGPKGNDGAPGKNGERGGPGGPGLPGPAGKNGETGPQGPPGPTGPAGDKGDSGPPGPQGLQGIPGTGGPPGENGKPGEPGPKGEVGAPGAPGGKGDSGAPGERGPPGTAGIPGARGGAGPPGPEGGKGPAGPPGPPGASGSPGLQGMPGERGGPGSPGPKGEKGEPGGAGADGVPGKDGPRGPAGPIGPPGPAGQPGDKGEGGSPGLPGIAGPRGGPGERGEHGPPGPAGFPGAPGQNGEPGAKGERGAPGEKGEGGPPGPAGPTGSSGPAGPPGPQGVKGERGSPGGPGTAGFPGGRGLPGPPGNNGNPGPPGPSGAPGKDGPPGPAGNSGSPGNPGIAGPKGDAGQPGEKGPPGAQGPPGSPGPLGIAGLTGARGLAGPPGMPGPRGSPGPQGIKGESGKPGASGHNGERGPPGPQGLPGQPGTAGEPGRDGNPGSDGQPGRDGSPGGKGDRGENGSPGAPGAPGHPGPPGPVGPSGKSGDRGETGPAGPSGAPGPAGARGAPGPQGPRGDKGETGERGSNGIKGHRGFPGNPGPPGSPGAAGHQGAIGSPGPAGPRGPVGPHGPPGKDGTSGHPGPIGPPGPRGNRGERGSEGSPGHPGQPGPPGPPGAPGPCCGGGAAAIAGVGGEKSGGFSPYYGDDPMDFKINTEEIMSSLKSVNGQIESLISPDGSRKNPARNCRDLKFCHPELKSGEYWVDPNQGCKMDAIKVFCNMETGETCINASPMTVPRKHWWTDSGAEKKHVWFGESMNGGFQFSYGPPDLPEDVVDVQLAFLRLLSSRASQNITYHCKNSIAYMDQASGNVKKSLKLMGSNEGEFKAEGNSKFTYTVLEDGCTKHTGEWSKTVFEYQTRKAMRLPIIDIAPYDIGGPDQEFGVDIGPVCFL

Effect of a mutation on the interaction, disrupting interaction:
R38Q
R38W
C91S
Y88C

Reference: IntAct's records for PubMed 22238662
